This note sets out measurements from patent publication US20110190477A1 (G2 INFLAMMATION, published 2011).

Assay [1] deals with T1, human C5a receptor (human, UniProt P21730 1-350).
T1 construct: On human neutrophils, L1.2/hC5aR transfectants or neutrophils of hC5aR knock-in mice; also called hC5aR; C5aR1
T1 chain: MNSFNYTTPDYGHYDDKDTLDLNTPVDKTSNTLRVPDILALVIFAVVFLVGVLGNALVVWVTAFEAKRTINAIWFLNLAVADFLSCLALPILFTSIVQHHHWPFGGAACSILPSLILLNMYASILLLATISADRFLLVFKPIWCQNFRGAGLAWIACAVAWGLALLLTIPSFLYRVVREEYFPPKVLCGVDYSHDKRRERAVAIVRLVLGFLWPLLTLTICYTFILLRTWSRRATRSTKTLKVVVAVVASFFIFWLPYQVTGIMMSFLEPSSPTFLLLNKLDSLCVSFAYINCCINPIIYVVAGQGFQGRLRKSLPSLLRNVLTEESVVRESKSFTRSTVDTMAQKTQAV
In words: PK/PD model (NONMEM) fitted to serum concentration and receptor occupancy in hC5aR transgenic mice, toxicology study column. The source says: NONMEM VI (non-linear mixed effects modelling software) with first order conditional estimation (FOCE) was used for modelling, and S-PLUS® 8.0 (Insigthful) was used for graphics and data handling. Evaluation of—and discrimination between—intermediate models was based on objective function values and standard graphical evaluation methods. In terms of objective function value, changes in this value were assumed to be chi-squared distributed (for nested models), and criteria for expanding the model were defined and used accordingly.
Toxicokinetics from the toxicology study in transgenic mice and PK/PD data from the pharmacology study was integrated to assess the relationship between pharmacokinetics and occupancy. […] This is consistent with other studies, observing higher clearance for high doses, due to saturation of the FcRN receptor (Hansen and Balthasar, 2002).

The target of assay [2] is T1, human C5a receptor. Kind of assay: flow cytometry of bound hAb-Q (anti-hIgG-FITC) on human neutrophils, pre-chemotaxis samples. The procedure:
The FACSCalibur flow cytometer was set up with compensation parameters established for channel FL-1. Samples were acquired to exclude dead cells and debris. Neutrophils were identified based on FSC and SSC. The level of bound hAb-Q (anti-hIgG-FITC) or free C5aR (hAb-Q-FITC) was determined by determining the FITC (FL-1) mean fluorescence intensity (MFI) of the neutrophils in a sample.
Four experiments were carried out. Briefly, purified neutrophils isolated from the venous blood of a healthy volunteer were preincubated for 10 min with hAb-Q at concentrations ranging from 0.001 to 100 μg/ml. A small aliquot of this mix was taken to determine the amount of antibody bound receptor (% receptor occupancy) and the remainder was placed in the upper chamber of a transwell plate. C5a (10 nM) was placed in the lower chamber. After 30 min incubation, the number of cells that had migrated into the lower chamber was determined using FACS. The amount of bound antibody on the neutrophils in both the lower and upper chambers at the end of migration was also determined, using FITC-labelled anti-hIgG and flow cytometry. The level of free receptor (no bound antibody) was determined in one experiment by incubating the neutrophils with FITC-labelled hAb-Q before and after migration.
(In general: A flow cytometer gives signals particle by particle.)

Assay [3] addresses T2, peptide 23 (33 mer, full length of the 2nd extracellular loop of hC5aR) (human, N-terminal biotin).
T2 construct: also called peptide no; 23
T2 peptide: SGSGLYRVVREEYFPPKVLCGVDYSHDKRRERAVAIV
Kind of assay: peptide ELISA, biotin peptide on streptavidin plate.

B1: humanized anti-C5aR antibody hAb-Q (antibody, human IgG4 S228P, kappa)
light: DVVMTQSPLSLPVTLGEPASISCRSSQSLVHSNGNTYLHWYLQKPGQSPQLLIYKVSNRFSGVPDRFSGSGSGTDFTLKISRVEAEDVGVYFCSQSTLVPLTFGQGTKLEIKRTVAAPSVFIFPPSDEQLKSGTASVVCLLNNFYPREAKVQWKVDNALQSGNSQESVTEQDSKDSTYSLSSTLTLSKADYEKHKVYACEVTHQGLSSPVTKSFNRGEC
heavy: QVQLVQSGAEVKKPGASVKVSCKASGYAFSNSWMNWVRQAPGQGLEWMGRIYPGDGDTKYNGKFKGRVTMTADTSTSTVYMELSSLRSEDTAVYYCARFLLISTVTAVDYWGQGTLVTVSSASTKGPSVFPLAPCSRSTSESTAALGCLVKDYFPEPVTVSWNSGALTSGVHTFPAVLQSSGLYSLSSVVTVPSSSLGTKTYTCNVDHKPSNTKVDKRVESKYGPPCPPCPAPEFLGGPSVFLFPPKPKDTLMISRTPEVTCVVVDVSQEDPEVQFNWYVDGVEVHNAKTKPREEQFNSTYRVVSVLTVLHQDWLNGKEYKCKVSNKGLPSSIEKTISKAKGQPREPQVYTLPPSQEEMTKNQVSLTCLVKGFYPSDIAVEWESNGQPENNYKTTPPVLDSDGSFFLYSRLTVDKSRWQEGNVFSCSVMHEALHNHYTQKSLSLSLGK
notes: IgG4 with the Ser228Pro mutation; also called antibody Q; anti-C5aR ab
On to B1, for which binding in the assay with human C5a receptor [1] was put at a Kd of 0.175 µg/mL. This molecule also registered an EC50 in the assay with human C5a receptor [2] of 0.3 µg/mL. The binding result in assay [3] is “binds”.

Usually Kd stands for the free concentration of one partner at which half of the binding sites on the other are occupied at equilibrium, for simple one-to-one binding. A lower Kd goes with a tighter complex. A word on the EC50: it is the concentration at which the effect is half-maximal. Low readings indicate higher potency in that assay, high ones lower potency in that assay.
